{"source": "the supplement of paper PMC12636428", "system": "Saccharomyces cerevisiae", "assay": "transcriptional activation domain activity (GFP:mCherry ratio, weighted mean of sorted bins, harmonized to initial dataset scale) (arbitrary fluorescence ratio units); higher = stronger transcriptional activation", "settings": "beta-estradiol 1 µM; induction time 4 h", "outline": "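For this assay, yeast diploids with a GFP reporter carried barcoded protein tiles at URA3, each fused to an estradiol-inducible synthetic transcription factor. Induction was a 1:5 dilution into SC with 1 uM beta-estradiol for 4 hours at 30 °C, followed by sorting into 8 bins by GFP:mCherry ratio and barcode sequencing. Tiles under 50 reads were dropped, and activation activity was calculated as the read-weighted mean of bin median fluorescence, averaged across barcodes and linearly mapped onto the initial dataset scale.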", "data": [{"sequence": "SDVLFVSLNLLYFWCYLIPLLATIWIRLGNADSTINDRLSVHFYSVAFLLLLF", "values": [{"measurement": "transcriptional activation domain activity", "result": 32800}]}, {"sequence": "SWNAPSLTNSWDSPPGNRTGAVTIGDESINGSEMPDFSLDLVSNDRQTGLEAL", "values": [{"measurement": "transcriptional activation domain activity", "result": 32800}]}, {"sequence": "GGGGQKRKAGAAQDDASSQQPKKKKAKKGGKGKGAQQQKQQGGASGSGGGQAS", "values": [{"measurement": "transcriptional activation domain activity", "result": 31500}]}, {"sequence": "AAGETVHFSARAEVLTSKFGRTSKLSPRFIILTEKAVYILLAAARDGRVVVQL", "values": [{"measurement": "transcriptional activation domain activity", "result": 37700}]}, {"sequence": "RRDILHRAIVFEGDAARSGTASTKWRSEVRGSARKMRPQKGSGRARLGDKKSP", "values": [{"measurement": "transcriptional activation domain activity", "result": 15600}]}, {"sequence": "WLSHSKKKSCDVCKHPYSFTKVYAENMPPRLPVFLLLRKVVEQAFFTIVFSIR", "values": [{"measurement": "transcriptional activation domain activity", "result": 55100}]}, {"sequence": "EKRYGPMLDPKNPLHYMWQLVYNILSLKLHIMLLFRYASNMHRIMPERLRQTV", "values": [{"measurement": "transcriptional activation domain activity", "result": 58300}]}, {"sequence": "VSVGLLDLLAYCGYGFIGVNATSVVKIFSSDSFWAVYGMFSYTMICLAFFTLR", "values": [{"measurement": "transcriptional activation domain activity", "result": 25800}]}, {"sequence": "MLMTKYMCKGSRLIFIFFCVFRLSMLFTFFSIVSDSCLYWCRVISYLVLLMTL", "values": [{"measurement": "transcriptional activation domain activity", "result": 63700}]}, {"sequence": "FGCLGFYPYLYCTGGMVLSHFAPHQNPELYPSDLSIISSLLISILFFCGWTLT", "values": [{"measurement": "transcriptional activation domain activity", "result": 67900}]}, {"sequence": "GLRLIYVVNHGAWGKGPPLATIWVYVIVQLNLLPAVLSLVVIAGFVQYLNLKI", "values": [{"measurement": "transcriptional activation domain activity", "result": 77200}]}, {"sequence": "MHYVFLPFFFFFLLFFLLFPLFFFFLPSFHLLLFLSSSLLLSFLSLAPATSHH", "values": [{"measurement": "transcriptional activation domain activity", "result": 38800}]}, {"sequence": "GKGKRKAVSEEEDKDEEGDEEPVKAKGKGKGKGKRKVVAKKVKRRAPAAADTS", "values": [{"measurement": "transcriptional activation domain activity", "result": "< 6570"}]}, {"sequence": "TYIPCDPLLTIVGGNVPFSSLGLRAFSLAMYSLLVIPGLNLVLPFLFFLLLHL", "values": [{"measurement": "transcriptional activation domain activity", "result": 92200}]}, {"sequence": "LHQFDHFGYQQVFSVRWMKKHLHDVSGGVMLHVIKYMANILSSLLAPMGYFEM", "values": [{"measurement": "transcriptional activation domain activity", "result": 29600}]}, {"sequence": "AVRLCRVTIKDITDPLPEGLRLSILLMSMDSLRLGRLYQVLDYMTIRSSLGKV", "values": [{"measurement": "transcriptional activation domain activity", "result": 44600}]}, {"sequence": "YYPLFLGRLLPLSLLSFFVYFILFTFAFLPQLAFLYIFHGRGAWLNAIFLVLG", "values": [{"measurement": "transcriptional activation domain activity", "result": 44200}]}, {"sequence": "LRLSTTISAYGIGIGYTAAVLVQVLSIVILILLESTTFALRLVLFVVGAWWLI", "values": [{"measurement": "transcriptional activation domain activity", "result": 46900}]}, {"sequence": "APSSSAAADGLTSPKPTGTRAALRSILREEGAAGLLRGLSPRVAKVAPACGMM", "values": [{"measurement": "transcriptional activation domain activity", "result": 42700}]}, {"sequence": "IDPHGYDANGLYEIGTIVSSIAVCVANFFVVFSLYSYTWIQALVISLSILVYY", "values": [{"measurement": "transcriptional activation domain activity", "result": 45700}]}, {"sequence": "MLHVVGGYSRVRTWVIFLFVFRIGGRAYIDWIGFFFMGFLHWIRFIVVMVLFL", "values": [{"measurement": "transcriptional activation domain activity", "result": 41800}]}, {"sequence": "IEAEEAEEIGVEHLLRDIASSSGAPSSTLLTTQSLSTRVAAQLNALQGLRARL", "values": [{"measurement": "transcriptional activation domain activity", "result": 66900}]}, {"sequence": "MTVIRFLKMIGPFFFLLLSFLLFPFFFFFIPFKMTLLSFLLLFPLFILHSVHC", "values": [{"measurement": "transcriptional activation domain activity", "result": 47500}]}, {"sequence": "YSRRDRPRDRGDRGDRDGGEERGGRRDRGDRNDRFGGEDRGGRGRRDGGGGGG", "values": [{"measurement": "transcriptional activation domain activity", "result": 10400}]}, {"sequence": "LAEEEGEEEEGESVTPTDDKIIVKLRGKDNTDTSLRVKQTTLIRSVISSYKKI", "values": [{"measurement": "transcriptional activation domain activity", "result": 64100}]}, {"sequence": "FGWHIYKKIGADLAMRGKRSLSPLISSSPRLADRYKMYQIFMMLLKLDFFFFL", "values": [{"measurement": "transcriptional activation domain activity", "result": 77900}]}, {"sequence": "ETEGFAKMAKAMGFGVYGLPSYIIKHIYNNCTHLFVVWHYGTLLIHLTAYPSF", "values": [{"measurement": "transcriptional activation domain activity", "result": 73700}]}, {"sequence": "TGLDGTAYVMFWTINVNVLMLLSQWILEERVRSRALQFCFRYYYFMVYFIFYR", "values": [{"measurement": "transcriptional activation domain activity", "result": 55300}]}, {"sequence": "DGGEAGEGGTEGAGGGAGGEEGQQGKRPEEGKRKERHRPAEEHGKEKNHGRGE", "values": [{"measurement": "transcriptional activation domain activity", "result": 30700}]}, {"sequence": "WYHYLPLCGTIFLILLPQPSWLWILVDFHLQTLHRPGLFIIHLLVSYTLIFMI", "values": [{"measurement": "transcriptional activation domain activity", "result": 38500}]}, {"sequence": "ELRNHMSAIIDICWGACGTYKGVELWLEWDRNDNVPFHDSLWRVVRFVIFVNH", "values": [{"measurement": "transcriptional activation domain activity", "result": 63200}]}, {"sequence": "LNWYFLGTFMYFLYGESIIYYFKHVLLVDRILLPLATHHRFISFMLYIIGFVF", "values": [{"measurement": "transcriptional activation domain activity", "result": 74300}]}, {"sequence": "TKLCTIGINCIFIIWHIADILIESPSHLPDIFTVFNVIISCSLFLLLFVYFVY", "values": [{"measurement": "transcriptional activation domain activity", "result": 27600}]}, {"sequence": "EREERRRQERAKEEAEGGNRRGKKNKGEAGGGKRGRGKRPRRGRRKGQRARGG", "values": [{"measurement": "transcriptional activation domain activity", "result": 34400}]}, {"sequence": "LAPFLAWLLSLLLQFFVFFLCYNYCTCFFTCLFTCLFCPFRWLQLLLYSIITT", "values": [{"measurement": "transcriptional activation domain activity", "result": 44000}]}, {"sequence": "MAFFYLCYIIISLVLYLFFLCSSFCCFMIHEFSLLSSLSQFSQRVYIGWSFFR", "values": [{"measurement": "transcriptional activation domain activity", "result": 58300}]}, {"sequence": "RLFAYYRSGWQVSNADVVQLPSWLFTLFLCAVCYLCMTIWYTYLTFQIHCVYW", "values": [{"measurement": "transcriptional activation domain activity", "result": 66300}]}, {"sequence": "LVLVAILGIVIPLDGFFGYLLTSLAIIWCSYSSSSMFTVVGRMSSMKWLVAYP", "values": [{"measurement": "transcriptional activation domain activity", "result": 57000}]}, {"sequence": "WLNGCFLLVGHIIFQLVMCYQLAQIIRGIVQMYGHLWISNDWHCLWITWLILF", "values": [{"measurement": "transcriptional activation domain activity", "result": 63600}]}, {"sequence": "KARQEKQPPMTQKDLATKVNEKPSVINDYESGRAVPNQQVLSKLERALQVKLR", "values": [{"measurement": "transcriptional activation domain activity", "result": 22500}]}, {"sequence": "MLCGAMPIVSLFSFYTFFFVFWCYLLKFFSVMAWLSTHIALLPSFFVLLTFSL", "values": [{"measurement": "transcriptional activation domain activity", "result": 40600}]}, {"sequence": "GRILIMLFLWLILRLQIRIVVREVLSRPCCCPFSTITSCAALEQYQRVYDQTA", "values": [{"measurement": "transcriptional activation domain activity", "result": 36700}]}, {"sequence": "DLLDQMILGLLRYCEADILVPKLRLLGATDRARMELLDAYSCKVWLLLLMFVT", "values": [{"measurement": "transcriptional activation domain activity", "result": 56500}]}, {"sequence": "MPWGGWGYIFDVTRPFFFCFISCLFLFYICLLGFLVGFFCFSFFFDLFIFFMT", "values": [{"measurement": "transcriptional activation domain activity", "result": 24600}]}, {"sequence": "AWKRVTALLGPVVRLKADIVEIFERVMIIYFRSLDLEEKPITAGILGTVNKWN", "values": [{"measurement": "transcriptional activation domain activity", "result": 48300}]}, {"sequence": "EEGGKEKEMREVERLSADERKLWGEALRLGRTGYSESAMIWVHVLALRVFVET", "values": [{"measurement": "transcriptional activation domain activity", "result": 37700}]}, {"sequence": "QADYMCQYKGGLIGKHFKTLSQVMAFAVHGLVPPDVLEAWLILGRLTVLLWHT", "values": [{"measurement": "transcriptional activation domain activity", "result": 49400}]}, {"sequence": "TLRQELPNFFIFGLNNTSIYSSNILLWEPRYTGLQIRGKWSYLMLAATIRWSL", "values": [{"measurement": "transcriptional activation domain activity", "result": 54000}]}, {"sequence": "MVPPRRESAATGASQRAAIACQSCRLRKVKCDAESAASDQGCTPCRRARQECV", "values": [{"measurement": "transcriptional activation domain activity", "result": 26600}]}, {"sequence": "MRLRVFFFISSFMWLLLVSFYCSFFSFAFTLFFFRFPPFFFSLFRFTLLPSPS", "values": [{"measurement": "transcriptional activation domain activity", "result": 63700}]}, {"sequence": "LAHCRAVVIRRVDGTAFEPVLRQAESLAVARTWLDRLFLCAYWMLTWFLADIV", "values": [{"measurement": "transcriptional activation domain activity", "result": 56400}]}, {"sequence": "MESVTCFYFHLFRFFHSRLLVFVLMLCFESIVSLFRFLCIFVFSLFFYIFFFF", "values": [{"measurement": "transcriptional activation domain activity", "result": 75500}]}, {"sequence": "PYILPLLILSKRLHSIFMLRCFNDCFAILFLFLAILCFQRRHWTVGSLIYSWG", "values": [{"measurement": "transcriptional activation domain activity", "result": 48300}]}, {"sequence": "MYECLAECEFLARLYFFLLHCCVYCTIIVYIFFLLVNCYAGVVSRLLELQTLR", "values": [{"measurement": "transcriptional activation domain activity", "result": 41100}]}, {"sequence": "VKPEAKAEHIKENTKPKPLGTKRANKAAEAPAPAAKKPVKKAAVPKKAAAAPA", "values": [{"measurement": "transcriptional activation domain activity", "result": 59600}]}, {"sequence": "STMHSNIGYIATLCLNLTLLLPLKDHPMVNNYVLVLVNSYWVLTGIWWFIFQQ", "values": [{"measurement": "transcriptional activation domain activity", "result": 35000}]}, {"sequence": "LPDKGKSTEIMTSKLVGRHEFLPVPDFEDQIRRLYENLLISLLSDTQLLIVAW", "values": [{"measurement": "transcriptional activation domain activity", "result": 55800}]}, {"sequence": "LPLLHRELFLKKYFEPIYGPWNPNIALASDQTGINSAFEIPITSAFSAHTEPK", "values": [{"measurement": "transcriptional activation domain activity", "result": 41700}]}, {"sequence": "CTYVRESIKQFNGTYSKALEVRQRSIQFLGQRTKLCWYWLMLRYHLSTLMLVD", "values": [{"measurement": "transcriptional activation domain activity", "result": 39700}]}, {"sequence": "FELHIPYHFVVVNTGKKLFQIWGLGKIDFARDFPFLQGARGSLTRTIIVILRN", "values": [{"measurement": "transcriptional activation domain activity", "result": 52300}]}, {"sequence": "MPIGCLMRQVHWHRAEMREYQACLLIFQALLCTTGDPFAHILMYMWFGILYRF", "values": [{"measurement": "transcriptional activation domain activity", "result": 58800}]}]}
